Columns and labels:
[1] = substrate: CN(CC(=O)O)C(=N)N; experiment: purified protein, by the assay type; details: other: 37° C., 0.1 mole/liter Tris-HCl (pH 8.0), optimum test conditions, wild type enzyme
[2] = substrate: CN(CC(=O)O)C(=N)N; experiment: purified protein, by the assay type; format: biochemical, Pseudomonas putida; details: other: 37° C., 0.1 mole/liter Tris-HCl (pH 8.0), optimum test conditions, mutant 109 = Val
Source text: (optimum test conditions)

B1: Pseudomonas putida creatine amidinohydrolase, wild type, from Escherichia coli DSM 3143 (pBT 2a-1, DSM 3148P) (Pseudomonas putida) (protein)
chain: MQMPKTLRIRNGDKVRSTFSAQEYANRQARLRAHLAAENIDAAIFTSYHNINYYSDFLYCSFGRPYALVVTEDDVISISANIDGGQPWRRTVGTDNIVYTDWQRDNYFAAIQQALPKARRIGIEHDHLNLQNRDKLAARYPDAELVDVAAACMRMRMIKSAEEHVMIRHGARIADIGGAAVVEALGDQVPEYEVALHATQAMVRAIADTFEDVELMDTWTWFQSGINTDGAHNPVTTRKVNKGDILSLNCFPMIAGYYTALERTLFLDHCSDDHLRLWQVNVEVHEAGLKLIKPGARCSDIARELNEIFLKHDVLQYRTFGYGHSFGTLSHYYGREAGLELREDIDTVLEPGMVVSMEPMIMLPEGLPGAGGYREHDILIVNENGAENITKFPYGPEKNIIRK
Work on B1 yielded a Km [1] of 25 mM.

B2: Pseudomonas putida creatine amidinohydrolase mutant (Ala109Val and Val355Met), from Escherichia coli DSM 4106 (pBT 119, DSM 4107P) (Pseudomonas putida; … (protein)
chain: MQMPKTLRIRNGDKVRSTFSAQEYANRQARLRAHLAAENIDAAIFTSYHNINYYSDFLYCSFGRPYALVVTEDDVISISANIDGGQPWRRTVGTDNIVYTDWQRDNYFVAIQQALPKARRIGIEHDHLNLQNRDKLAARYPDAELVDVAAACMRMRMIKSAEEHVMIRHGARIADIGGAAVVEALGDQVPEYEVALHATQAMVRAIADTFEDVELMDTWTWFQSGINTDGAHNPVTTRKVNKGDILSLNCFPMIAGYYTALERTLFLDHCSDDHLRLWQVNVEVHEAGLKLIKPGARCSDIARELNEIFLKHDVLQYRTFGYGHSFGTLSHYYGREAGLELREDIDTVLEPGMVMSMEPMIMLPEGLPGAGGYREHDILIVNENGAENITKFPYGPEKNIIRK
notes: made in house; host or cells: Escherichia coli DSM 4106 (plasmid pBT 119, DSM 4107P)
B2 was tested, and the Km ([2]; 355 = Met) was 16 mM.

B3: Pseudomonas putida creatine amidinohydrolase mutant (amino acid 109 = Val; Ala109Val), from Escherichia coli DSM 4105 (pBT 109, DSM 4108P) (Pseudomonas putida; … (protein)
chain: MQMPKTLRIRNGDKVRSTFSAQEYANRQARLRAHLAAENIDAAIFTSYHNINYYSDFLYCSFGRPYALVVTEDDVISISANIDGGQPWRRTVGTDNIVYTDWQRDNYFVAIQQALPKARRIGIEHDHLNLQNRDKLAARYPDAELVDVAAACMRMRMIKSAEEHVMIRHGARIADIGGAAVVEALGDQVPEYEVALHATQAMVRAIADTFEDVELMDTWTWFQSGINTDGAHNPVTTRKVNKGDILSLNCFPMIAGYYTALERTLFLDHCSDDHLRLWQVNVEVHEAGLKLIKPGARCSDIARELNEIFLKHDVLQYRTFGYGHSFGTLSHYYGREAGLELREDIDTVLEPGMVVSMEPMIMLPEGLPGAGGYREHDILIVNENGAENITKFPYGPEKNIIRK
notes: made in house; host or cells: Escherichia coli DSM 4105 (plasmid pBT 109, DSM 4108P)
For B3, the Km [2] was 20 mM.
